Assay results from patent US20250179138.

System: ACP11 (human p40/murine p35 IL-12 fusion protein)

active MMP9 (Sigma catalog #SAE0078-50 or Enzo catalog BML-SE360), sequence (chain, as listed by the source): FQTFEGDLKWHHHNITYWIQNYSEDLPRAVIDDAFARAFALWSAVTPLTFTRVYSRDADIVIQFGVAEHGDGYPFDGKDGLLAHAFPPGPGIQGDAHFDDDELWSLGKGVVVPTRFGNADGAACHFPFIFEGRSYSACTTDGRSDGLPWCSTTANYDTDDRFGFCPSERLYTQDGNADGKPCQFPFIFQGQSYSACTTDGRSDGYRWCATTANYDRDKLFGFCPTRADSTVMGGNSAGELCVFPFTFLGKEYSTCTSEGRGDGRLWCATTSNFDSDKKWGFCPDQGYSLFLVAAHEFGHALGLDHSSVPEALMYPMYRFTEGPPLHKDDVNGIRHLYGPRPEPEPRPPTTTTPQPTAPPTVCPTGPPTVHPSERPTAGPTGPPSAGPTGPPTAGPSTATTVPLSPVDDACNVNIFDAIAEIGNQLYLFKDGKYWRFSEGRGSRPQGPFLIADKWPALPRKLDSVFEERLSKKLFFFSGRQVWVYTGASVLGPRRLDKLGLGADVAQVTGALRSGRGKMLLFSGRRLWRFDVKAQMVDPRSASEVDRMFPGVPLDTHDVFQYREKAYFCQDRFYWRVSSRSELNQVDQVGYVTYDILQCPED

active MMP9 (Sigma catalog #SAE0078-50 or Enzo catalog BML-SE360)
protein cleavage assay, extent of cleavage monitored by SDS PAGE: the ACP11 fusion protein was cleaved by MMP9 protease
